Paper PMC9272907, “Penpulimab, an Fc-Engineered IgG1 Anti-PD-1 Antibody, With Improved Efficacy and Low Incidence of Immune-Related Adverse Events” (Frontiers in Immunology, 2022)

Experiments:
FcγRIa (human) = FcγRIa (human) (UniProt P12314); assay: BLI; ForteBio Octet QKe; FcγRIa immobilised on HIS1K sensor; antibody 50 nM to 3.12 nM in solution; 120 s binding and 120 s dissociation
FcγRIIa_H131 (human) = FcγRIIa_H131 (human) (UniProt P12318); assay: BLI; ForteBio Octet QKe; FcγRIIa_R131 or FcγRIIa_H131 immobilised on NTA sensor; antibody 200 nM to 12.5 nM in solution; 60 s binding and 60 s dissociation
Sequence of FcγRIIa_H131 (human) (P12318 34-317): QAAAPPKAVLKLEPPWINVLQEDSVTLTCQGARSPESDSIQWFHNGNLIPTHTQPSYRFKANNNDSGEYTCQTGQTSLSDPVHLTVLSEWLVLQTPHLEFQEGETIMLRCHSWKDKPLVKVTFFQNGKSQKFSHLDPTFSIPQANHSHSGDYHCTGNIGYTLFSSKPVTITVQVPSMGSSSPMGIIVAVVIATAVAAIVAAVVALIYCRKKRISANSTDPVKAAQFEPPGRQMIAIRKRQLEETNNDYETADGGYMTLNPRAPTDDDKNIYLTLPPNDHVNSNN

FcγRIIa_R131 (human) = assay: as above
FcγRIIIa_V158 (human) = assay: BLI; ForteBio Octet QKe; FcγRIIIa_F158 or FcγRIIIa_V158 (5 μg/mL) immobilised on HIS1K sensor; antibody 500 nM to 31.25 nM in solution; 60 s binding and 60 s dissociation
FcγRIIIa_F158 (human) = FcγRIIIa_F158 (human) (UniProt P08637); assay: as above
Sequence of FcγRIIIa_F158 (human) (P08637 17-254): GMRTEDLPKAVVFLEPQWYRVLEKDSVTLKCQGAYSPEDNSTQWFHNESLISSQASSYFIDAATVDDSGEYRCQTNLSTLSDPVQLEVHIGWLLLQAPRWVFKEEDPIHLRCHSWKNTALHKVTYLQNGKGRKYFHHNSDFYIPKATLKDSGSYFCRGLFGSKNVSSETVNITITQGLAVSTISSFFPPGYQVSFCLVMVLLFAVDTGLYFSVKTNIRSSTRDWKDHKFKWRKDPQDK

[1] = biological target: T1, human PD-1 extracellular domain fused to human IgG Fc domain (PD-1-hFc) (Homo sapiens, UniProt Q15116); assay: SPR; Biacore T200; PD-1-hFc immobilised on CM5 chip; antibody 50 nM to 1.56 nM flowed; 180 s binding, 420 s dissociation; conditions: both partners purified
T1 construct: human programmed cell death protein 1 (PD-1), extracellular domain
T1 sequence (Q15116 25-170): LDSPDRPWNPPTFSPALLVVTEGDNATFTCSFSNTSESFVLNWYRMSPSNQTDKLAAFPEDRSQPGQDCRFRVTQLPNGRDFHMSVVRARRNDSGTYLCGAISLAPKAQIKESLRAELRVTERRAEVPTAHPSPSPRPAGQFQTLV

Sequence of FcγRIa (human) (P12314 16-374): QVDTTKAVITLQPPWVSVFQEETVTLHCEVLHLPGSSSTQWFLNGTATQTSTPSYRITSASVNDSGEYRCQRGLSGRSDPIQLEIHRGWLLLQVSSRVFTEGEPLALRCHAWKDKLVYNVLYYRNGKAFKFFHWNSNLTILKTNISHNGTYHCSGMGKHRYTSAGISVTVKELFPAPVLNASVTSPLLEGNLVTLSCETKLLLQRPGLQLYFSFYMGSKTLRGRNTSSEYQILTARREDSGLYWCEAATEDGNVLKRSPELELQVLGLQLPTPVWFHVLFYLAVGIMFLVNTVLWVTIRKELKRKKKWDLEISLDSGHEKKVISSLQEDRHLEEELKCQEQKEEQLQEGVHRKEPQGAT

B1: AK105 (hG4), an IgG4 backbone version of penpulimab (antibody, V domains shown)
VH: EVQLVESGGGLVQPGGSLRLSCAASGFAFSSYDMSWVRQAPGKGLDWVATISGGGRYTYYPDSVKGRFTISRDNSKNNLYLQMNSLRAEDTALYYCANRYGEAWFAYWGQGTLVTVSS
VL: DIQMTQSPSSMSASVGDRVTFTCRASQDINTYLSWFQQKPGKSPKTLIYRANRLVSGVPSRFSGSGSGQDYTLTISSLQPEDMATYYCLQYDEFPLTFGAGTKLELK
Kd (FcγRIa (human)): 8.25 nM
koff (FcγRIa (human)): 0.00478 s⁻¹
kon (FcγRIa (human)): 579000 M⁻¹ s⁻¹
Kd (FcγRIIa_H131 (human)): 50.7 nM
koff (FcγRIIa_H131 (human)): 0.013 s⁻¹
kon (FcγRIIa_H131 (human)): 257000 M⁻¹ s⁻¹
Kd (FcγRIIa_R131 (human)): 31.3 nM
koff (FcγRIIa_R131 (human)): 0.011 s⁻¹
kon (FcγRIIa_R131 (human)): 350000 M⁻¹ s⁻¹
Kd (FcγRIIIa_V158 (human)): 23500 nM
koff (FcγRIIIa_V158 (human)): 0.0837 s⁻¹
kon (FcγRIIIa_V158 (human)): 3560 M⁻¹ s⁻¹

B2: AK105 (hG1WT), a version of penpulimab with wildtype IgG1 backbone (antibody, V domains shown)
VH: B1 VH
VL: B1 VL
Kd (FcγRIa (human)): 3.35 nM
koff (FcγRIa (human)): 0.00213 s⁻¹
kon (FcγRIa (human)): 636000 M⁻¹ s⁻¹
Kd (FcγRIIa_H131 (human)): 57.4 nM
koff (FcγRIIa_H131 (human)): 0.0267 s⁻¹
kon (FcγRIIa_H131 (human)): 465000 M⁻¹ s⁻¹
Kd (FcγRIIa_R131 (human)): 34.6 nM
koff (FcγRIIa_R131 (human)): 0.0228 s⁻¹
kon (FcγRIIa_R131 (human)): 660000 M⁻¹ s⁻¹
Kd (FcγRIIIa_V158 (human)): 197 nM
koff (FcγRIIIa_V158 (human)): 0.0329 s⁻¹
kon (FcγRIIIa_V158 (human)): 167000 M⁻¹ s⁻¹
Kd (FcγRIIIa_F158 (human)): 238 nM
koff (FcγRIIIa_F158 (human)): 0.04 s⁻¹
kon (FcγRIIIa_F158 (human)): 168000 M⁻¹ s⁻¹

B3: Penpulimab (antibody, V domains shown)
VH: B1 VH
VL: B1 VL
notes: heavy chain variable domain of penpulimab; light chain of penpulimab; Human IgG1 anti-PD-1 antibody with Fc mutations; probably a Fab; also called AK105
Kd [1]: 0.588 nM
koff [1]: 9.51e-05 s⁻¹
kon [1]: 162000 M⁻¹ s⁻¹
Kd (FcγRIIa_R131 (human)): 232 nM
koff (FcγRIIa_R131 (human)): 0.0938 s⁻¹
kon (FcγRIIa_R131 (human)): 404000 M⁻¹ s⁻¹
